From patent publication US10945940B2, “Method of preparing ultra-low molecular weight keratin peptide” (KYUNGPOOK NATIONAL UNIVERSITY INDUSTRY-ACADEMIC COOPERATION …, priority 2015, dated 2021)

Tests used:
[1] = target: T1, Matrix metalloproteinase-1 (MMP-1) enzyme (Homo sapiens, UniProt P03956); assay: MMP-1 enzyme activity inhibition in vitro (MMP-1 Fluorometric Drug Discovery Kit); format: biochemical; details: for inhibition of MMP-1 enzyme activity compared to the group treated with the only MMP-1 enzyme: 10 μM; for significant effect of inhibiting MMP-1 activity: FIG. 5A
T1 construct: purchased Enzo
T1 sequence (P03956 100-269 limits assumed): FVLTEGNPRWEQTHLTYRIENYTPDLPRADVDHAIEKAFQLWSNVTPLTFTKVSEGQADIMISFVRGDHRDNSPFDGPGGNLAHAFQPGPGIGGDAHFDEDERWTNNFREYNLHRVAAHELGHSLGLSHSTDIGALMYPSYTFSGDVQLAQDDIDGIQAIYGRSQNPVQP
Procedure: MMP-1 Fluorometric Drug Discovery Kit manufactured by Enzo company was used to evaluate an ability to inhibit Matrix metalloproteinase-1 (MMP-1) enzyme activity in the peptide synthesized in Example 3. N-Isobutyl-N-(4-methoxyphenylsulfonyl) glycyl hydroxamic acid (NNGH) which is known to inhibit MMP-1 activity was used as a positive control group, and NNGH was treated at a concentration of 0.65 μM. […] The substrate was added to the reaction mixture, fluorescence thereof was measured at Ex/Em=540/590 nm, and the ability to inhibit MMP-1 activity was evaluated according to the following Equation 2. The results of the ability of inhibiting MMP-1 activity are illustrated in FIG. 5A. Ability to inhibit MMP-1activity(%)=Fluorescence intensity of sample-added group/Fluorescence intensity of non-treated group×100 [Equation 2]

MMP-1 expression = assay: Inhibition of UVB-induced MMP-1 expression in human dermal fibroblasts (Western blot); format: cell-based; details: 10 μM, 20 mJ/cm^2 UVB
Procedure: Then, ultraviolet ray B was irradiated with 20 mJ/cm^2 using Vilber Lourmat (BioLink Crosslinker, France), cultured for 24 hours, and then cell proteins were recovered. At this time, the medium was removed before ultraviolet irradiation, and then washed with phosphate buffered saline (PBS) solution to remove serum components in the medium and then irradiated with ultraviolet ray B. The cells were washed twice with PBS solution to recover the proteins, and then the cells adhered to the bottom were recovered using a lysis buffer and centrifuged at 14,000 rpm for 10 minutes. After each supernatant was recovered, the protein concentration of each cell supernatant was quantified according to the method of use with a protein assay kit (Bio-Rad, USA) using bovine serum albumin (BSA) as the reference material. About […] protein from each of the protein extracts was denatured and separated by 8% gel sodium dodecyl sulphate-polyacrylamide gel electrophoresis (SDS-PAGE) and transferred to a polyvinylidene fluoride (PVDF) membrane at 120 mA for 2 hours. […]

FPQN [2n7-5]
inhibition of MMP-1 enzyme activity compared to the group treated with the only MMP-1 enzyme [1]: inhibited the activity of MMP-1 enzyme

GFGGF [2n7-4]
inhibition of MMP-1 enzyme activity compared to the group treated with the only MMP-1 enzyme [1]: inhibited the activity of MMP-1 enzyme
significant effect of inhibiting MMP-1 activity [1]: significant effect of inhibiting MMP-1 activity

GLGSR [2-2]
inhibition of MMP-1 expression compared to the group treated with the only UVB (MMP-1 expression): ~35%
inhibition of MMP-1 enzyme activity compared to the group treated with the only MMP-1 enzyme [1]: inhibited the activity of MMP-1 enzyme
significant effect of inhibiting MMP-1 activity [1]: significant effect of inhibiting MMP-1 activity

GLSGL [KP7-1]
inhibition of MMP-1 enzyme activity compared to the group treated with the only MMP-1 enzyme [1]: inhibited the activity of MMP-1 enzyme
significant effect of inhibiting MMP-1 activity [1]: significant effect of inhibiting MMP-1 activity

GPTPL [2-1]
inhibition of MMP-1 expression compared to the group treated with the only UVB (MMP-1 expression): about 24%
inhibition of MMP-1 enzyme activity compared to the group treated with the only MMP-1 enzyme [1]: inhibited the activity of MMP-1 enzyme
significant effect of inhibiting MMP-1 activity [1]: significant effect of inhibiting MMP-1 activity

IQPSPV [KP7-2]
inhibition of MMP-1 enzyme activity compared to the group treated with the only MMP-1 enzyme [1]: inhibited the activity of MMP-1 enzyme
significant effect of inhibiting MMP-1 activity [1]: significant effect of inhibiting MMP-1 activity

PISS [2n7-2]
inhibition of MMP-1 enzyme activity compared to the group treated with the only MMP-1 enzyme [1]: inhibited the activity of MMP-1 enzyme
